# Results taken from publication doi:10.1101/2025.11.17.688825 (bioRxiv, 2025).
# B1: ERα^(LBD_F) (ERα residues 302-595, S305A, F591R, P592R, phosphorylated T594) (domain or fragment)
# chain: KKNALALSLTADQMVSALLDAEPPILYSEYDPTRPFSEASMMGLLTNLADRELVHMINWAKRVPGFVDLTLHDQVHLLECAWLEILMIGLVWRSMEHPGKLLFAPNLLLDRNQGKCVEGMVEIFDMLLATSSRFRMMNLQGEEFVCLKSIILLNSGVYTFLSSTLKSLEEKDHIHRVLDKITDTLIHLMAKAGLTLQQQHQRLAQLLLILSHIRHMSNKGMEHLYSMKCKNVVPLYDLLLEMLDAHRLHAPTSRGGASVEETDQSHLATAGSTSSHSLQKYYITGEAEGRRATV
# modifications: phosphorylated T594 (PKA co-expression)
# Target: T1, 14-3-3ζ (residues 1-245, 14-3-3ζ-strep, chain of the 14-3-3ζ/ERα^(LBD_F) complex) (human, UniProt P63104 1-245)
# T1 sequence: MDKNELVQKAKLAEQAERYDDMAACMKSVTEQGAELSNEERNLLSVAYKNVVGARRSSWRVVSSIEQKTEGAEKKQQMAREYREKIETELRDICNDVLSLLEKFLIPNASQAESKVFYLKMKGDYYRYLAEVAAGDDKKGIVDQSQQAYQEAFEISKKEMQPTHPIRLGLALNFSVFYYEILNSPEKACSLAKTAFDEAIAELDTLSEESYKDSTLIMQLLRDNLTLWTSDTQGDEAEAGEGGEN
# Assay: mass photometry
binder,measurement,value
B1,stoichiometry N,1 ERα(LBD_F) per 14-3-3ζ (2:2)
